Measured values reported in patent US20120219565A1 (Merck Sharp & Dohme, published 2012).
Several values for one entry are separate records, joined by “and”; a condition that tells them apart may be missing. Equal entries are not always repeated.

Tests used:
[1] = target: Recombinant human TSLP (expressed in HEK293 cells) (human) (UniProt Q969D9); test: KinExA 3000, solution equilibrium, 25 °C, particles coated with biotinylated human TSLP
[2] = target: Cynomolgus monkey TSLP (expressed in HEK293 cells) (cynomolgus monkey); test: SPR, BIAcore T100, TSLP immobilised on CM5, antibody injected, bivalent analyte model, room temperature
[3] = target: Recombinant human TSLP (expressed in HEK293 cells) (human) (UniProt Q969D9); test: as above
[4] = target: Cynomolgus monkey TSLP (expressed in HEK293 cells) (cynomolgus monkey); test: cell-based or functional assay
[5] = target: Recombinant human TSLP (expressed in HEK293 cells) (human) (UniProt Q969D9); test: cell-based or functional assay
[6] = target: Human TSLP purchased from R&D and expressed in E. coli (human) (UniProt Q969D9); test: cell-based or functional assay
[7] = target: T1, Human TSLP purchased from R&D and expressed in E. coli (human, UniProt Q969D9 29-159); test: SPR, BIAcore T100, R&D E. coli TSLP immobilised on CM5, antibody injected, bivalent analyte model, 37 °C
T1 construct: Bought preparation; also called human (R&D)*; hTSLP*

[8] = target: T2, Cynomolgus monkey TSLP (expressed in HEK293 cells) (cynomolgus monkey, UniProt A0A7N9CAT7 29-159); test: SPR, BIAcore T100, TSLP immobilised on CM5, antibody injected, bivalent analyte model, room temperature
T2 construct: also called cyno TSLP; cTSLP

[9] = target: T3, Recombinant human TSLP (expressed in HEK293 cells) (human, UniProt Q969D9 29-159); test: KinExA 3000, solution equilibrium, 25 °C, particles coated with biotinylated human TSLP
T3 construct: In KinExA a biotinylated form coated the particles and the unlabelled form was in solution; also called hu TSLP; hTSLP

[10] = target: T1, Human TSLP purchased from R&D and …; test: cell-based or functional assay
[11] = target: T2, Cynomolgus monkey TSLP (expressed in …); test: cell-based or functional assay
[12] = target: T3, Recombinant human TSLP (expressed in …); test: cell-based or functional assay
[13] = target: T1, Human TSLP purchased from R&D and …; test: SPR, BIAcore T100, R&D E. coli TSLP immobilised on CM5, antibody injected, bivalent analyte model, room temperature
[14] = target: T2, Cynomolgus monkey TSLP (expressed in …); test: SPR, BIAcore T100, TSLP immobilised on CM5, antibody injected, bivalent analyte model, 37 °C

Kd [1] [nM]	Kd [2] [nM]	Kd [3]	EC 50, inhibition of TSLP-induced proliferation of Ba/F3-TSLPR-IL7Ra cells [4]	EC 50, inhibition of TSLP-induced proliferation of Ba/F3-TSLPR-IL7Ra cells [5]	EC 50, inhibition of TSLP-induced proliferation of Ba/F3-TSLPR-IL7Ra cells [6] [µg/mL]	Kd [7] [nM]	Kd [8]	Kd [9] [nM]	EC 50, inhibition of TSLP-induced proliferation of Ba/F3-TSLPR-IL7Ra cells [10]	EC 50, inhibition of TSLP-induced proliferation of Ba/F3-TSLPR-IL7Ra cells [11]	EC 50, inhibition of TSLP-induced proliferation of Ba/F3-TSLPR-IL7Ra cells [12]	Kd [13] [nM]	Kd [14] [nM]	Binder
0.0011	0.159	0.141 nM and 0.13 nM	0.064 µg/mL and 0.122 µg/mL and 0.054 µg/mL	0.022 µg/mL and 0.025 µg/mL and 0.014 µg/mL	0.083	–	–	–	–	–	–	–	–	Parental rat antibody 23B12 (antibody, from a related filing, V domains shown) VH: EEKLQQSGDDLVRPGAAVKMSCKASGYIFTDYAMHWVKQRPGQGLEWIGTFIPLLDTSDYNQNFKGRATLTADKSSNTAYMELSRLTSEDSAVYYCARMGVTHSYVMDAWGQGASVTVSS VL: DIVLTQSPATLSVTPGESVSLSCRASQPISISVHWFQQKSNESPRLLIKFASQSISGIPSRFSGSGSGTDFTLNINRVESEDFSVYYCQQTFSLPYTFGTGTKLELKR
–	–	–	–	–	–	0.299	0.138 nM and 0.08 nM and 0.115 nM and 0.127 nM	0.0032	0.137 µg/mL and 0.215 µg/mL	0.117 µg/mL and 0.077 µg/mL and 0.158 µg/mL and 0.067 µg/mL	0.041 µg/mL and 0.024 µg/mL	0.339	0.381	Humanized anti hu TSLP mAb 23B12 (comprising the heavy chain of SEQ ID NO:11 and the light chain of SEQ ID NO:12 of the instant application) (antibody, human IgG1, kappa, V domains shown, Vector deposited as ATCC PTA-10482; also called Antibody 4) VH: QVQLVQSGAEVKKPGASVKVSCKASGYIFTDYAMHWVRQAPGQGLEWMGTFIPLLDTSDYAQKFQGRVTMTADTSTSTAYMELRSLRSDDTAVYYCARMGVTHSYVMDAWGQGTLVTVSS VL: EIVLTQSPGTLSLSPGERATLSCRASQPISISVHWYQQKPGQAPRLLIYFASQSISGIPDRFSGSGSGTDFTLTISRLEPEDFAVYYCQQTFSLPYTFGQGTKVEIKR
